The values that follow come from the supplement of paper PMC7877785.

± gives the uncertainty stated by the source.

The data set in a line: self-splicing fitness, log relative to wild type (ln ratio); higher = more splicing; Tetrahymena group I intron in knt gene, E. coli kanamycin selection, DiMSum; sequences stand for … in CUCUCU…GGAGGGAAAAGUUAUCAGGCAUGCACCUGGUAGCUAGUCUUUAAACCAAUAGAUUGCAUCGGUUUAAAAGGCAAGACCGUCAAAUUGCGGGAAAGGGGUCAACAGCCGUUCAGUACCAAGUCUCAGGGGAAACUUUGAGAUGGCCUUGCAAAGGGUAUGGUAAUAAGCUGACGGACAUGGUCCUAACCACGCAGCCAAGUCCUAAGUCAACAGAUCUUCUGUUGAUAUGGAUGCAGUUCACAGACUAAAUGUCGGUCGGGGAAGAUGUAUUCUUCUCAUAAGAUAUAGUCGGACCUCUCCUUAAUGGGAGCUAGCGGAUGAAGUGAUGCAACACUGGAGCCGCUGGGAACUAAUUUGUAUGCGAAAGUAUAUUGAUUAGUUUUGGAGUACUCGUGGUCG
The essentials:
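Fitness was computed with DiMSum as the error-weighted combination of replicate fold changes, kanamycin versus none, each normalised to wild type. The library randomised all eight intron nucleotides of the P1ex region, with the intron placed in the knt kanamycin-resistance gene on pET-22b(+) in E. coli BL21(DE3). Six replicate transformations were grown overnight at 37°C or 30°C on LB agar with or without 25 μg/mL kanamycin, plus 100 μg/mL carbenicillin, 50 μM IPTG and 0.2% rhamnose. Pooled colonies were amplicon-sequenced on an Illumina HiSeq 2500.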

Consider ACUGAGCAAUAUUACGGCCG, for which the “self-splicing fitness (ln)” value by setting is: (30 °C) -1.89 ± 0.17; (37 °C) -0.752 ± 0.2.
For UGAGAGCAAUAUUACGCAUG, the “self-splicing fitness (ln)” value is, setting by setting: (30 °C) -1.65 ± 0.13; (37 °C) -2.09 ± 0.18.
GACAAGCAAUAUUACGGUCU: the “self-splicing fitness (ln)” value was -4.04 ± 0.16 (30 °C) and -2.42 ± 0.15 (37 °C).
As to CGGUAGCAAUAUUACGUUGG, the “self-splicing fitness (ln)” value runs as follows: (30 °C) -1.26 ± 0.091; (37 °C) -0.39 ± 0.084.
As for UGACAGCAAUAUUACGAACA, the “self-splicing fitness (ln)” value (30 °C) was -0.232 ± 0.081 and the “self-splicing fitness (ln)” value (37 °C) is -0.06 ± 0.087.
The matching figures for CUUCAGCAAUAUUACGGCUA: -3.01 ± 0.2 and -2.06 ± 0.24.
The matching figures for CGACAGCAAUAUUACGCUCG: -3.34 ± 0.37 and -2.18 ± 0.24.
The matching figures for AGGAAGCAAUAUUACGCUCU: -2.56 ± 0.22 and -1.99 ± 0.29.
AAUCAGCAAUAUUACGUCGG: the “self-splicing fitness (ln)” value reads like this: (30 °C) -1.88 ± 0.1; (37 °C) -1.02 ± 0.14.
As to CGCUAGCAAUAUUACGAACC, the “self-splicing fitness (ln)” value runs as follows: (30 °C) -2.92 ± 0.2; (37 °C) -0.219 ± 0.16.
As to GAAUAGCAAUAUUACGGCCU, the “self-splicing fitness (ln)” value is -0.86 ± 0.075 (30 °C) and 0.112 ± 0.12 (37 °C).
Regarding CGUGAGCAAUAUUACGUAUC, the “self-splicing fitness (ln)” value is -1.84 ± 0.16 (30 °C) and -2.42 ± 0.27 (37 °C).
The matching figures for CGCCAGCAAUAUUACGGGUA: -0.998 ± 0.064 and -0.377 ± 0.069.
Turning to CUUCAGCAAUAUUACGGGAG, the “self-splicing fitness (ln)” value (30 °C) was -3.41 ± 0.24 and the “self-splicing fitness (ln)” value (37 °C) is -2.52 ± 0.22.
On to AUACAGCAAUAUUACGAACA, for which the “self-splicing fitness (ln)” value is -1.78 ± 0.17 (30 °C) and 0.157 ± 0.14 (37 °C).
The matching figures for AGCGAGCAAUAUUACGUUAU: -3.81 ± 0.36 and -0.895 ± 0.16.
Consider CUUGAGCAAUAUUACGUCUU, for which the “self-splicing fitness (ln)” value (30 °C) was -4.1 ± 0.21 and the “self-splicing fitness (ln)” value (37 °C) was -2.48 ± 0.2.
The matching figures for UUUAAGCAAUAUUACGUAAG: -0.0425 ± 0.074 and 0.296 ± 0.094.
In the case of CGAUAGCAAUAUUACGCUGG, the “self-splicing fitness (ln)” value is -0.585 ± 0.19 (30 °C) and -1.43 ± 0.23 (37 °C).
The matching figures for GCGCAGCAAUAUUACGUACC: -1.63 ± 0.11 and -0.655 ± 0.13.
The matching figures for AUACAGCAAUAUUACGGAAG: -3.36 ± 0.14 and -2.21 ± 0.14.
As to UACCAGCAAUAUUACGCCAG, the “self-splicing fitness (ln)” value was -0.698 ± 0.08 (30 °C) and -1.13 ± 0.1 (37 °C).
The matching figures for UGGCAGCAAUAUUACGAUAU: -2.5 ± 0.16 and -1.37 ± 0.21.
Consider GCUAAGCAAUAUUACGCGCU, for which the “self-splicing fitness (ln)” value is -2.47 ± 0.16 (30 °C) and -1.57 ± 0.23 (37 °C).
Turning to UGCUAGCAAUAUUACGUAUU, the “self-splicing fitness (ln)” value reads like this: (30 °C) -3.06 ± 0.18; (37 °C) -1.72 ± 0.24.
On to CGCUAGCAAUAUUACGGCUG, for which the “self-splicing fitness (ln)” value (30 °C) was -1.13 ± 0.12 and the “self-splicing fitness (ln)” value (37 °C) is -0.227 ± 0.14.
Consider UGAGAGCAAUAUUACGCUUG, for which the “self-splicing fitness (ln)” value was -2.26 ± 0.36 (30 °C) and -1.55 ± 0.33 (37 °C).
Regarding GUGUAGCAAUAUUACGUAUU, the “self-splicing fitness (ln)” value (30 °C) is -1.25 ± 0.12 and the “self-splicing fitness (ln)” value (37 °C) was -2.82 ± 0.22.
Consider AAAAAGCAAUAUUACGACGA, for which the “self-splicing fitness (ln)” value (30 °C) was determined as 0.0233 ± 0.084 and the “self-splicing fitness (ln)” value (37 °C) is -0.502 ± 0.1.
Regarding ACUGAGCAAUAUUACGGGGU, the “self-splicing fitness (ln)” value was -2.72 ± 0.14 (30 °C) and -3.13 ± 0.28 (37 °C).
The matching figures for GAUAAGCAAUAUUACGGUAG: -3.17 ± 0.23 and -2.35 ± 0.27.
As to UUCAAGCAAUAUUACGUGGA, the “self-splicing fitness (ln)” value is, setting by setting: (30 °C) -2.17 ± 0.17; (37 °C) -2.52 ± 0.15.
In the case of GGGAAGCAAUAUUACGAAUA, the “self-splicing fitness (ln)” value (37 °C) was -1 ± 0.2.
